# From the NTF2 design screens of Basanta et al. (2020)
# Assay: protease stability score; higher = more stable; yeast display proteolysis, trypsin and chymotrypsin;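 also: log10 excess protease needed over predicted unfolded state with 0 meaning unfolded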
row,Sequence,protease stability score
1,DDTVQRMVDKFLENLKTGNEEDISKMADPNVSLNYGDKRIHGREQLMQWVERQEKEMRVEFQIRHVDVHGNKAHVTADMRIHNNGDPDNARVQFVVNAQGDKVKTITFHKTR,-0.14
2,DDTVRELVKQLRTALESNDEKKVKRLVDPNAQFQYGDKTLHGMTHAASRRVKEHQEIRLSIKKFHVNVSGDHVRVEFRYEVNVNGRPRKASATFTARFENGKMKEQRLRFDEDEYRKLKK,0.063
3,DEDAAKDYETIVKQQESGDEDKVRQNVDPNAKWHIGEKKVHGRESLANEVHRVRRQMNERMEVKTVKDQGDKANVEMRVVQQHNGEPKDYTMQVDVHAHNGRLREVKATEQS,-0.388
4,DEDAARKIRKLVEDWANGDPQSVADQMDENAEVHIGDQTLHGRDHVRKFVEKLSEQIRISVQSVTVRASGNHITAHVQMEVDVNGHPDTITFRIHADVDNGRIKSMEYRMDEQEQRKRTS,0.346
5,DEDAARRMLEFLRQMEQGNEHELRHLADPNARMRVGDHTLHGMEDIAREQVERNRRLRFSNKVDRIKNDGDKVNLQIRFQIDVNGKPFTDVVSVNVHEHNGKIEFVEFRVPEEFREKVKR,0.1
6,DEDAARSAEHLQRHNDFDEFARRADENVRLRVGDFRFQGREQVIRFMKRFTDRFDHVQFRRMDFHGNRMQAEFVAEVNGKTVKMKESFQIDNGRVHSVTQEATSEEDQEELKRLID,0.254
7,DEDADRKFQDMVENEHRGDNDKLKKMADKNVKFTVGDKSIHGMEDYATEVRKRKERSRVRYKDVRSNDHNGRVVVKFDAQRNHNGQPKDFHVTVHFRMENGKLKEMEVRTDQ,0.052
8,DEDADRVFEEFIRAKTRGDPDRLSQLVDPNVRMHVGDQELRGRDTVRRFLHEVLHHARNDIHIQSMEVDGDHVSVEFKATTEHNGQPRTDRMTASAKIDNGRIKSLQEHSKK,-0.297
9,DEDAEKHWRTFLRNQKTGDEQKMRDQVDPNARASIGDQEVEGREKIVRELVEEFRHMHVQINWKSLTAHNGKVHAHADAQVDHNGRPQTYKITASAQFSNGKIKEFKMQRRP,-0.013
10,DEDAEREIDRLVRDNNEEDIERLMPEDAKMQVGDKTVTGRENIATQIKRLNQKADHRRIDKITLQGERVVINFTIVVNGTKFKAKIVLHAHNGKIKVVVLRARDEDLDREMSKVMN,0.028
11,DEDAERHVTEMIHAYKHNNPEKVQTYMDKHVKIKVGDKTVKGREERAKELRKQKDQMRVDYDVHSMNVKGDKITARLRVDITVNGQPHTFEYHLIVKWTNGKIQELSVEFPEEDQKKQSR,-0.086
12,DEDAERLINQLLTAERRGNPDQVMQQVDKNATQTVGDKHIHGREDISREVEKRKRESRVDRKVESIDIRGNQARIEVHFEEDRNGKPVTSAQTMDITFHNGVVHERKVQDDS,-0.743
13,DEDAERRMREQLKVFNRGNPDQMVKYMDKDARIEVGDTVVEGREDWRHEIDKQKKEAKYKIDVKRVDVDGDDLTIDATISVDHNGKPREKKLIVEAKLHNGKLKHARYDNRG,-0.05
14,DEDAFRVWRRLLSAIRDGDEDKVRNQADENATATIGDKTWHGMTTLAHELVHEARNLRFTQRITHYSVDNGRVNADYRFTKNENGRPQEDRVLVRFVAHNGQLKSVHNTKIS,0.131
15,DEDAHKRYEHIERVMEHGDESTLEQLMDPNARIQVGDKEVRGMNKWAKEVAEEIRQMEVRVDIKSVDVRGNRVRVEAKYTVNVNGRPKTATKEVVLDFENGRVSYVQVRFDPDRKKSIDQ,0.443
16,DEDAHRLVEEFWRALKDGDSEQIKELADKDVHVQVGDTKVHGREELASQVQRERDQMSVDLKIDHVELNEDHVDVEAKMVVEHNGKPKTNKAKLDFRFHNGKLQMMRRQTRQ,-0.184
17,DEDAHRRASTLMTAIENNDPHKVMQMFDEDAKVDVGDKRVSGRERQAEEERERNTQSRVRYKSYKIDAQGNKVRVHADFEVHHNGRPDRKRMKAVFNYDNGKIKQATVKDDK,-0.235
18,DEDAIRSVEKMLQDRRTGNPHEVQKMFDPNAQVDVGDKTVQGRENIKDHVETDLRQSRFHMEIKHVQAHNGQIDIDAERSYTRNGQPDSNRVEIVIDIKNGKIRSVKVRTDD,-0.488
19,DEDAIRVANEILKAIKEGDPHQIEEQFDKHARATYGDKTIEGSKNIMNFQKQMMDRASIKIDSVRLKNQGDHANLDYRAKVTHNGTPNDRRFTADVTVRNGKMRVFDVESRP,-0.365
20,DEDAKKQVETMIRLIERGNEKEIKKQMDPNATYQVGDNRLHGMDQVNKHLKDLKEQMRFVFDVKSITVRGDKVDIDLQLDKNENGRPDKEDARMIVHVHNGSVKSVIVTTRG,0.143
21,DEDAKRSLNELWKAIQQGDPDRIRELIDKNVRLRYGEKRIHGRDQAAKFWHDLHDHARFKVRDVSIKIHNGRADVRMRMTIHINGEPLDVTVIYKIEFHNGQAVRIELEVDEDQLRKQRK,0.845
22,DEDAKRVANEISKAFDQNDPDKARQLADENAEVQIGDKVLHGRDQATNQLERQREEQNEHVDSVEIDVDGDKLKVRIHFNSHSNGRPRRNTRTYTIVVRNGHLQHLDMKENG,-0.246
23,DEDALDLLEKAARAYQTGDPDQLMRNLDEDAKVDVGDKKIRGRNDARRHLQELKDKIELHLHVTEMSVQGNKVHAHFKLHSDQNGKPYHTDVEMRADVHNGRVKRMEIRTTK,-0.159
24,DEDALDQVEEMMRNNNEQEIADRADKDVEVEYGDHELHGREDMQDWAEKWQQQVDHLEVKSVHKKGDHFKMKLRAVFNGQEYTFVMVVEVHNGKIKNIKYDATSKEVKEIQKEVLK,-0.163
25,DEDALKQMHENLENIKEGDPDKIKKMFDENARVEVGDKVLNGRDQASKFWSELRDQINIHIRDVKLSVSGEEVTINIDARFTHNGQPQTSIFRIEAELHNGTIKSLRVKLDG,2.02
